According to patent US7232671:
Substitutions are numbered along the chain they refer to.

B1: full-length recombinant S1 with the Arg->Lys mutation at residue 9 (protein)
chain: DDPPATVYKYDSRPPEDVFQNGFTAWGNNDNVLDHLTGRSCQVGSSNSAFVSTSSSRRYTEVYLEHRMQEAVEAERAGRGTGHFIGYIYEVRADNNFYGAASSYFEYVDTYGDNAGRILAGALATYQSEYLAHRRIPPENIRRVTRVYHNGITGETTTTEYSNARYVSQHTRANPNPYTSRRSVASIVGTLVRMAPVIGACMARQAESSEAMAAWSERAGEAMVLVYYESIAYS
B2: S1/6A (recombinant pertussis toxin S1 analog, parent construction 6A) (protein)
chain: B1 chain with D1M, D2V, K9R
B3: S1 mutant 4-1 (Arg9->Lys in S1/6A) (protein)
chain: B1 chain with D1M, D2V
B4: S1 mutant 8-1 (Tyr8->Leu, Arg9->Glu in S1/6A) (protein)
chain: B1 chain with D1M, D2V, Y8L, K9E
B5: S1 mutant 5-1 (Tyr8->Phe in S1/6A) (protein)
chain: B1 chain with D1M, D2V, Y8F, K9R
B6: S1 mutant 3-1 (Asp11->Glu in S1/6A) (protein)
chain: B1 chain with D1M, D2V, K9R, D11E
B7: S1 mutant 6-1 (Asp11->Pro, Pro14->Asp in S1/6A) (protein)
chain: B1 chain with D1M, D2V, K9R, D11P, P14D
B8: S1 mutant 7-2 (Arg9->Asn, Ser12->Gly in S1/6A) (protein)
chain: B1 chain with D1M, D2V, K9N, S12G
B9: S1 mutant 2-2 (Ser12->Gly in S1/6A) (protein)
chain: B1 chain with D1M, D2V, K9R, S12G
B10: S1 mutant 1-1 (Arg13->Lys in S1/6A) (protein)
chain: B1 chain with D1M, D2V, K9R, R13K

molecular target: purified bovine transducin (alpha subunit is the ADP-ribose acceptor), P04695

Row | Protein | transferase activity | ADP-ribosyltransferase activity (cpm)
1 | B1 | transferase activity was reduced by a factor of approximately 1000 | 
2 | B2 |  | 23400 ± 950
3 | B3 |  | 754
4 | B4 |  | 926
5 | B5 |  | 26400 ± 1320
6 | B6 |  | 13500 ± 1600
7 | B7 |  | 764
8 | B8 |  | 753
9 | B9 |  | 22300 ± 2100
10 | B10 |  | 7390 ± 1370
